From article PMC10585395

Biological target: Regulatory ATPase variant A (RavA) (E. coli) (UniProt P31473)

B1: von Willebrand factor type A interacting with AAA+ ATPase (ViaA) (natural protein)
chain: MLTLDTLNVMLAVSEEGLIEEMIIALLASPQLAVFFEKFPRLKAAITDDVPRWREALRSRLKDARVPPELTEEVMCYQQSQLLSTPQFIVQLPQILDLLHRLNSPWAEQARQLVDANSTITSALHTLFLQRWRLSLIVQATTLNQQLLEEEREQLLSEVQERMTLSGQLEPILADNNTAAGRLWDMSAGQLKRGDYQLIVKYGEFLNEQPELKRLAEQLGRSREAKSIPRNDAQMETFRTMVREPATVPEQVDGLQQSDDILRLLPPELATLGITELEYEFYRRLVEKQLLTYRLHGESWREKVIERPVVHKDYDEQPRGPFIVCVDTSGSMGGFNEQCAKAFCLALMRIALAENRRCYIMLFSTEIVRYELSGPQGIEQAIRFLSQQFRGGTDLASCFRAIMERLQSREWFDADAVVISDFIAQRLPDDVTSKVKELQRVHQHRFHAVAMSAHGKPGIMRIFDHIWRFDTGMRSRLLRRWRR
An ATPase activity of 0.5 uM RavA with equimolar full-length ViaA (ATP-NADH coupled assay) of 3 fold was found for B1 in this work.
